# Source: article PMC8878330 (Molecules, 2022)
# Key:
# [1] = system: C[C@@H](O)[C@H]1C(=O)N2C(C(=O)O)=C(S[C@@H]3CN[C@H](C(=O)N(C)C)C3)[C@H](C)[C@H]12; assay: steady-state hydrolysis kinetics with purified NDM-1 (Km); assay type: biochemical, Klebsiella pneumoniae; details: Zn2+ (two Zn ions)
# [2] = system: CO/N=C(\C(=O)N[C@@H]1C(=O)N2C(C(=O)O)=C(COC(C)=O)CS[C@H]12)c1csc(N)n1; assay: as above; assay type: biochemical, Klebsiella pneumoniae; details: Zn2+ (two Zn ions)
# [3] = system: C[C@@H](O)[C@H]1C(=O)N2C(C(=O)O)=C(SCCN=CN)C[C@H]12; assay: as above; assay type: biochemical, Klebsiella pneumoniae; details: Zn2+ (two Zn ions)
# [4] = system: CC1(C)S[C@@H]2[C@H](NC(=O)[C@H](N)c3ccccc3)C(=O)N2[C@H]1C(=O)O; assay: as above; assay type: biochemical, Klebsiella pneumoniae; details: Zn2+ (two Zn ions)
# [5] = biological target: T1, New Delhi metallo-β-lactamase-1 (NDM-1) (Klebsiella pneumoniae, UniProt C7C422); assay: biochemical
# T1 construct: gene blaNDM-1
# T1 sequence (C7C422 29-270 limits assumed): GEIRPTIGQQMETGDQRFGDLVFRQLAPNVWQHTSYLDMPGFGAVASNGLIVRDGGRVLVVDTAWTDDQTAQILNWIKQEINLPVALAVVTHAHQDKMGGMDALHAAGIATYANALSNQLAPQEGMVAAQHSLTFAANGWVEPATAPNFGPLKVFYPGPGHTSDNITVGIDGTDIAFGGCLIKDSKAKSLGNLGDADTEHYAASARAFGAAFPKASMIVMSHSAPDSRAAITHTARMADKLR
# [6] = biological target: T1, New Delhi metallo-β-lactamase-1 (NDM-1); assay: steady-state hydrolysis kinetics with purified NDM-1 (Km); assay type: biochemical
compound,measurement,setting,value
New Delhi metallo-β-lactamase-1 (NDM-1) (Klebsiella pneumoniae),Km,[1],52.8 ± 3.4 µM
same,Vmax,[1],38.6 µM/min
same,kcat,[1],322 ± 11.7 s⁻¹
same,kcat/Km,[1],6.1e+06 ± 450000 M⁻¹ s⁻¹
same,Km,[2],54.8 ± 3.7 µM
same,Vmax,[2],45.1 µM/min
same,kcat,[2],375 ± 17.5 s⁻¹
same,kcat/Km,[2],6.85e+06 ± 560000 M⁻¹ s⁻¹
same,Km,[3],75.9 ± 2.9 µM
same,Vmax,[3],91 µM/min
same,kcat,[3],758 ± 18.6 s⁻¹
same,kcat/Km,[3],9.99e+06 ± 450000 M⁻¹ s⁻¹
same,Km,[4],96.5 ± 3.1 µM
same,Vmax,[4],44.9 µM/min
same,kcat,[4],375 ± 14.3 s⁻¹
same,kcat/Km,[4],3.88e+06 ± 190000 M⁻¹ s⁻¹
O=P(O)(O)C(O)(Cc1cccnc1)P(=O)(O)O [risedronate],IC50,[5],24.6 µM
O=C(Cc1cccs1)N[C@@H]1C(=O)N2C(C(=O)O)=C(/C=C/c3ccc([N+](=O)[O-])cc3[N+](=O)[O-])CS[C@H]12 [nitrocefin],Km,[6],23.2 ± 1.7 µM
